This is an account of results in patent US7053185B1, “Lactalbumin production process” (HAMLET Pharma AB, priority 1997, dated 2006).

The subject of data set [1] is tumour cell lines. Description: Tumour cell line viability, vital dye (trypan blue). Format: cell-based. The conditions noted are these: for activity compared with protein isolated from human milk casein: tumour cell lines. As to the method: The two peaks which are believed to contain MAL were kept separately and tested individually. Testing was carried out as described hereinafter in Example 4. Representative results are set out in Table 1.
(§1) The biological efficacy of the products obtained in the above Examples 1 and 2 above was tested using tumour cell lines as described in Hakansson et al (1995) supra. Cell lines were incubated with samples of the products at various concentrations in cell culture media at 37° C. for various time points. After incubation, the cells are harvested and the cell viability determined using a vital dye (trypan blue).

Data set [2] concerns tumour cell lines. Description: Apoptosis: oligonucleosome length DNA fragments by agarose gel electrophoresis. The format is cell-based. The conditions noted are these: material eluting at MAL position (1 M NaCl). On the procedure: as §1
(§2) Oligonucleosome length DNA fragments were detected by agarose gel electrophoresis. Cells (2×10^6) were lysed in 5 mM Tris, 20 mM EDTA, 0.5% Triton X-100 pH 8.0 at 4° C. for 1 hour and centrifuged at 13,000×g for 15 minutes. DNA was ethanol precipitated overnight in −20° C., treated with proteinase K and RNAse, loaded on 1.8% agarose gels and electrophoresed with constant voltage set at 50V overnight. DNA fragments were visualized with ethidium bromide using a 305 nm UV-light source and photographed using Polaroid type 55 positive-negative film.

Data set [3] has as its system L1210 cells. Description: Apoptosis-inducing activity / DNA fragmentation in L1210 cells. Format: cell-based. The conditions noted are these: 0.7 mg/ml. On the procedure:
as §2
The lipid concentration was defined in “MAL equivalents” as the amount extracted from a defined mass of MAL. […] However, lipids from 0.5 or 1 mg of MAL had no effect on cell viability or DNA fragmentation. […] MAL lipids were not active at concentrations when intact MAL killed the cells.

Data set [4] relates to cancer cells and immature cells. The conditions noted are these: cancer cells and immature cells versus healthy cells; cited from earlier work.

Consider “Commercial bovine α-lactalbumin, untreated, MAL Peak 2: second MAL peak from commercial (Sigma) bovine α-lactalbumin run on casein trained column”, for which the “Viability of tumour cells” value in data set [1] (Dosage 0.5 mg/ml) and in data set [1] (Dosage 1.0 mg/ml) was 98% each time.

With “Commercial bovine α-lactalbumin, untreated, MAL Peak 1: first MAL peak from commercial (Sigma) bovine α-lactalbumin run on casein trained column”, the entries for the “Viability of tumour cells” value in data set [1] (Dosage 0.3 mg/ml) and in data set [1] (Dosage 0.5 mg/ml) were 50% and 0%, respectively.

B1: Native, monomeric α-lactalbumin: native human milk α-lactalbumin converted to multimeric form on casein conditioned column, eluting at MAL position (protein, UniProt P00709 20-142, looked up)
Alpha-lactalbumin: KQFTKCELSQLLKDIDGYGGIALPELICTMFHTSGYDTQAIVENNESTEYGLFQISNKLWCKSSQVPQSRNICDISCDKFLDDDITDDIMCAKKILDIKGIDYWLAHKALCTEKLEQWLCEKL
modifications: multimeric form
notes: native human milk α-lactalbumin converted to multimeric form on casein conditioned column, eluting at MAL position
As for B1, in data set [2], the “apoptosis-inducing / biological activity of converted material” value (shortened to “apoptosis-inducing / biological activity”) is given as “no apoptosis-inducing activity”.

B2: Commercial human α-lactalbumin, Untreated, MAL Peak 1: first MAL peak from commercial (Sigma) human α-lactalbumin run on casein trained column (protein, UniProt P00709 20-142, looked up)
Alpha-lactalbumin: KQFTKCELSQLLKDIDGYGGIALPELICTMFHTSGYDTQAIVENNESTEYGLFQISNKLWCKSSQVPQSRNICDISCDKFLDDDITDDIMCAKKILDIKGIDYWLAHKALCTEKLEQWLCEKL
modifications: multimeric form
notes: first MAL peak from commercial (Sigma) human α-lactalbumin run on casein trained column
Consider B2, for which the “Viability of tumour cells” value in data set [1] (Dosage 0.5 mg/ml) and in data set [1] (Dosage 1.0 mg/ml) was 0% in each case.

B3: Human α-lactalbumin+, EDTA pre-treated, MAL Peak 1: first peak from EDTA pre-treated human milk α-lactalbumin, casein trained column (protein, UniProt P00709 20-142, looked up)
Alpha-lactalbumin: KQFTKCELSQLLKDIDGYGGIALPELICTMFHTSGYDTQAIVENNESTEYGLFQISNKLWCKSSQVPQSRNICDISCDKFLDDDITDDIMCAKKILDIKGIDYWLAHKALCTEKLEQWLCEKL
modifications: multimeric form
notes: first peak from EDTA pre-treated human milk α-lactalbumin, casein trained column
Turning to B3, the “Viability of tumour cells” value in data set [1] (Dosage 1.0 mg/ml) worked out at 0%.

B4: monomeric α-lactalbumin in the molten globule-like state: converted on clean matrix conditioned with lipids extracted from casein conditioned column; single peak at MAL position (protein, UniProt P00709 20-142, looked up)
Alpha-lactalbumin: KQFTKCELSQLLKDIDGYGGIALPELICTMFHTSGYDTQAIVENNESTEYGLFQISNKLWCKSSQVPQSRNICDISCDKFLDDDITDDIMCAKKILDIKGIDYWLAHKALCTEKLEQWLCEKL
modifications: molten globule form
notes: converted on clean matrix conditioned with lipids extracted from casein conditioned column; single peak at MAL position
Take B4: in data set [2], the “apoptosis-inducing / biological activity” value is recorded as “apoptosis-inducing activity”.

B5: α-lactalbumin treated with EDTA: EDTA treated α-lactalbumin completely converted to oligomeric form on casein conditioned column (protein, UniProt P00709 20-142, looked up)
Alpha-lactalbumin: KQFTKCELSQLLKDIDGYGGIALPELICTMFHTSGYDTQAIVENNESTEYGLFQISNKLWCKSSQVPQSRNICDISCDKFLDDDITDDIMCAKKILDIKGIDYWLAHKALCTEKLEQWLCEKL
modifications: oligomeric form
notes: EDTA treated α-lactalbumin completely converted to oligomeric form on casein conditioned column
In the case of B5, the “apoptosis-inducing / biological activity” value in data set [2] is given as “significant biological activity”.

B6: Human α-lactalbumin+, EDTA pre-treatment + EDTA buffer, MAL Peak 2: second peak from EDTA treated human milk α-lactalbumin run with EDTA buffers on casein trained column (protein, UniProt P00709 20-142, looked up)
Alpha-lactalbumin: KQFTKCELSQLLKDIDGYGGIALPELICTMFHTSGYDTQAIVENNESTEYGLFQISNKLWCKSSQVPQSRNICDISCDKFLDDDITDDIMCAKKILDIKGIDYWLAHKALCTEKLEQWLCEKL
modifications: multimeric form
notes: second peak from EDTA treated human milk α-lactalbumin run with EDTA buffers on casein trained column
Regarding B6, the “Viability of tumour cells” value in data set [1] (Dosage 0.5 mg/ml) is reported as 89%; in data set [1] (Dosage 1.0 mg/ml), 0%.

B7: Example 1: multimeric product from commercial monomeric human α-lactalbumin on matrix pre-run with human milk casein (protein, UniProt P00709 20-142, looked up)
Alpha-lactalbumin: KQFTKCELSQLLKDIDGYGGIALPELICTMFHTSGYDTQAIVENNESTEYGLFQISNKLWCKSSQVPQSRNICDISCDKFLDDDITDDIMCAKKILDIKGIDYWLAHKALCTEKLEQWLCEKL
modifications: multimeric form
notes: multimeric product from commercial monomeric human α-lactalbumin on matrix pre-run with human milk casein
In the case of B7, the “activity compared with protein isolated from human milk casein” value in data set [1] was “similar”.

B8: Human α-lactalbumin+, EDTA pre-treated, MAL Peak 2: second peak from EDTA pre-treated human milk α-lactalbumin, casein trained column (protein, UniProt P00709 20-142, looked up)
Alpha-lactalbumin: KQFTKCELSQLLKDIDGYGGIALPELICTMFHTSGYDTQAIVENNESTEYGLFQISNKLWCKSSQVPQSRNICDISCDKFLDDDITDDIMCAKKILDIKGIDYWLAHKALCTEKLEQWLCEKL
modifications: multimeric form
notes: second peak from EDTA pre-treated human milk α-lactalbumin, casein trained column
As to B8, the “Viability of tumour cells” value in data set [1] (Dosage ca. 1.5 mg/ml) came to 98%.

B9: MAL: oligomeric complex of α-lactalbumin in molten globule-like state, from human milk casein by ion exchange, eluting at 1M NaCl (protein, UniProt P00709 20-142, looked up)
Alpha-lactalbumin: KQFTKCELSQLLKDIDGYGGIALPELICTMFHTSGYDTQAIVENNESTEYGLFQISNKLWCKSSQVPQSRNICDISCDKFLDDDITDDIMCAKKILDIKGIDYWLAHKALCTEKLEQWLCEKL
modifications: oligomeric molten globule form
notes: oligomeric complex of α-lactalbumin in molten globule-like state, from human milk casein by ion exchange, eluting at 1M NaCl
Turning to B9, the “apoptosis induction (reduction of cell viability, DNA fragments)” value in data set [3] was “induced apoptosis”. Moreover, in data set [4], the apoptotic cell death result was “induces apoptotic cell death in cancer cells and immature cells, but not in healthy cells”.

B10: Human α-lactalbumin+, EDTA pre-treatment + EDTA buffer, MAL Peak 1: first peak from EDTA treated human milk α-lactalbumin run with EDTA buffers on casein trained column (protein, UniProt P00709 20-142, looked up)
Alpha-lactalbumin: KQFTKCELSQLLKDIDGYGGIALPELICTMFHTSGYDTQAIVENNESTEYGLFQISNKLWCKSSQVPQSRNICDISCDKFLDDDITDDIMCAKKILDIKGIDYWLAHKALCTEKLEQWLCEKL
modifications: multimeric form
notes: first peak from EDTA treated human milk α-lactalbumin run with EDTA buffers on casein trained column
Take B10: the “Viability of tumour cells” value in data set [1] (Dosage 0.5 mg/ml) and in data set [1] (Dosage 1.0 mg/ml) was 0% throughout.

B11: Human α-lactalbumin+, Untreated, MAL Peak 2: second peak from human milk α-lactalbumin (ammonium sulphate precipitation), untreated, casein trained column (protein, UniProt P00709 20-142, looked up)
Alpha-lactalbumin: KQFTKCELSQLLKDIDGYGGIALPELICTMFHTSGYDTQAIVENNESTEYGLFQISNKLWCKSSQVPQSRNICDISCDKFLDDDITDDIMCAKKILDIKGIDYWLAHKALCTEKLEQWLCEKL
modifications: multimeric form
notes: second peak from human milk α-lactalbumin (ammonium sulphate precipitation), untreated, casein trained column
On to B11, for which, in data set [1] (Dosage 1.0 mg/ml), the “Viability of tumour cells” value worked out at 95%.

B12: Human α-lactalbumin+, Untreated, MAL Peak 1: first peak from human milk α-lactalbumin (ammonium sulphate precipitation), untreated, casein trained column (protein, UniProt P00709 20-142, looked up)
Alpha-lactalbumin: KQFTKCELSQLLKDIDGYGGIALPELICTMFHTSGYDTQAIVENNESTEYGLFQISNKLWCKSSQVPQSRNICDISCDKFLDDDITDDIMCAKKILDIKGIDYWLAHKALCTEKLEQWLCEKL
modifications: multimeric form
notes: first peak from human milk α-lactalbumin (ammonium sulphate precipitation), untreated, casein trained column
Take B12: the “Viability of tumour cells” value in data set [1] (Dosage 1.0 mg/ml) is 79%.

B13: Commercial human α-lactalbumin, Untreated, MAL Peak 2: second MAL peak from commercial (Sigma) human α-lactalbumin run on casein trained column (protein, UniProt P00709 20-142, looked up)
Alpha-lactalbumin: KQFTKCELSQLLKDIDGYGGIALPELICTMFHTSGYDTQAIVENNESTEYGLFQISNKLWCKSSQVPQSRNICDISCDKFLDDDITDDIMCAKKILDIKGIDYWLAHKALCTEKLEQWLCEKL
modifications: multimeric form
notes: second MAL peak from commercial (Sigma) human α-lactalbumin run on casein trained column
Regarding B13, the “Viability of tumour cells” value in data set [1] (Dosage 1.0 mg/ml) came out at 0%.

B14: 2: multimeric product from monomeric bovine α-lactalbumin on matrix pre-run with human milk casein (protein, UniProt P00711 20-142, looked up)
Alpha-lactalbumin: EQLTKCEVFRELKDLKGYGGVSLPEWVCTTFHTSGYDTQAIVQNNDSTEYGLFQINNKIWCKDDQNPHSSNICNISCDKFLDDDLTDDIMCVKKILDKVGINYWLAHKALCSEKLDQWLCEKL
modifications: multimeric form
notes: multimeric product from monomeric bovine α-lactalbumin on matrix pre-run with human milk casein
For B14, the “activity compared with protein isolated from human milk casein” value in data set [1] was “similar”.
